The data set can be described thus: yeast display, Sf9 membrane polyspecificity reagent, FACS + sequencing; frameworks hold sequencing errors. In short, it runs like this: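 Sorting gates, low and high (top ~1%), were placed on anti-HA fluorescence to track expression and on streptavidin fluorescence to track reagent binding. A clone's polyreactivity label is taken from the gate it came out of. The reagent was 10% biotinylated, detergent-solubilized Sf9 membrane, applied for 1 hour at 4 °C to galactose-induced yeast display cells.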
Regarding “QVQLVESGGGLVQAGGSHRLSCAASRSIFPYNAKGWYRQAPGKATELVATISNSGGSTYYADSVKGRFTISRDTAMNTVYLQMNSLKPEDTAVYYCADDRSVYLPAPDPALDYWGQGTQLTVSS”, the “polyreactivity (PSR sort gate)” value is given as “low polyreactivity”.

Turning to “QVQLVESGGGLVQAGGSLRLSCAATGRTFGFNDMGWYRKATGKEREFVAAINSGGNTYYADSVKGRFTISRDNAKNTVYLQMNSLKPEDTAVYECAVKRASRYYVRKEYYYWGQGTQVTVSS”, the “polyreactivity (PSR sort gate)” value is given as “high polyreactivity”.

In the case of “QVQLVESGGRLFQAGGSLRLSCAASGRSYRYYAMGGYTKAPGKERELFAAISSGTRTNYADSVKGRFTISRDNAKNTVYFQMNSLKPEDTAVYYCKADGYRGYYGRNKSKYDFWGQGTQVTVSS”, the “polyreactivity (PSR sort gate)” value is “high polyreactivity”.

Take “QVQLVESGVGLVQAGGSLRLSWAATGSIFPYNDLGWYRKAPGKERELVAAISDSAGTTYYADSVKGRFTISRDNAKNTVDLQMNSLKPEDTAGYYCAADSWDSQVVSYEYWGQGTQVTLSS”: the “polyreactivity (PSR sort gate)” value is recorded as “low polyreactivity”.

As for “QVQLVESGGGLVQAGGSLRLSCAASGSTFWVYGMGWSRQAPGKERELVADITSIGGSTYYADSVKGRFTISRDNAKNTVYLQMNSLKPEDTAVYYCAARETWYPYYWMGYWGQGTQVTVSS”, the “polyreactivity (PSR sort gate)” value was “high polyreactivity”.

Take “QVQLVESGGGLVQAGGSLRLSCAASGSTFGSNAMGWYRQAPGKERELVAAIRWSGGSTYYADSVKGRFTISRDNAKNTVYLQMNSLKPEDTAVYYFAGYYFQYNRRFNYWGQGTQVTVSS”: the “polyreactivity (PSR sort gate)” value was “high polyreactivity”.

With “QVQLVESGGGLVQAGGSLRLSCAASGCTFLYYMGWYRQAPGKERELVSALTFSGGSTYYADSVKGRFTISRDNAKNTVYLQMNSLKPEDTAVDDGAAGWYDWPKYLLSVYTYYLYDYWGQGSQVTVSS”, the “polyreactivity (PSR sort gate)” value is on record as “low polyreactivity”.

With “QVQLVESGGGLVQAGGSLRLSCAASGRTLFGYAMGWYRQAPGKERELVAAITYGATSTYADSVKGRFTISRDNAKNTVYLQMNSLKPEDTAVYYCNAYTPTDGFDYWGQGTQVTVSS”, the “polyreactivity (PSR sort gate)” value is given as “low polyreactivity”.

In the case of “QVHLVESGGGLVMAVGSLRLSCAASGFTFVGYAMGWYRQAPGKERELVATITRVGSTNYADSVKGRFTISRDNAKNTVYLQMNSLKPEDTAVYYCNTRRVYGHGKSPYDSWGQGTQVTVSS”, the “polyreactivity (PSR sort gate)” value was “low polyreactivity”.

For “QVQLVESGGGLVQAGGSLRLSCAASGSTFYLYAMGWYRQAPGKERELVASITSGDGSTYYADSVKGRFTISRDNPKNTVYLQMNSLKPEDTAVYDCNAVLEGWFYQDDYWGQGTQVSVSS”, the “polyreactivity (PSR sort gate)” value is recorded as “low polyreactivity”.

“PVQLVESGGGLVHAGGSLRLSCAASGLTFRYYAMGLYRQAPGKERELVASISWSGASTYYADSVKGRFTISRDNAKNTVYLQMNSLKPEDTEVYYCNAGYYGSYDYWGQGTQVTVSS”: the “polyreactivity (PSR sort gate)” value is “high polyreactivity”.

“QVQLVESGGGLVQAGGSLRLSCGASGSIFWVYAMGWYRQAPGKERELVAAISNSGSTNYADSVKGRFTISRDNAKNTVYLQMNSLKPADTAVYYCAKDSLVDHVGGYDYWGQGTQVTVSS”: the “polyreactivity (PSR sort gate)” value is reported as “low polyreactivity”.

Consider “QVQLVESGGGLVQARGSLRLSCAASGINFYHYPMGWYRQATGKEMELVAAINWGGSRTYYADSVKGRFTISRDNAKNTVYLQMNSLKPEDTAVYYCAAVYVPYYWLGRSRGLDYWGQGTQVTVSS”, for which the “polyreactivity (PSR sort gate)” value is “high polyreactivity”.

Take “QVQLVESGGGLVQAGGSLRLSCAASGFTFTSNAMGWYRQAPGKEREFVADISNIGGDTTYADSVKGRFTISRDNAKNTVYLQMNSLKPEDTAVYYCKADFAFIENDYWGQGTQVTVSS”: the “polyreactivity (PSR sort gate)” value is “low polyreactivity”.

Regarding “QVQLVESGGGLVQAGGSLRLSCAASGSIFTYYAMGWYRQAPGKERELVAAISYSGGTTYYADSVKGRFTISRDNAKNTVYLQMNSLKPEDTAVYYCNVDADYESQWLSVGYDYWGQGTQVTVSS”, the “polyreactivity (PSR sort gate)” value is recorded as “low polyreactivity”.

For “QVQLVESGGGLVQAGGSLRLSCAASGFTFSSYAMGWYRQAPGKERELVAAITQSGGRTYYADSVKGRFTISRDNAKNTVYLQMNSLKPEDTAVYSCAADVTLWYDYWGQGTQVTVSS”, the “polyreactivity (PSR sort gate)” value was “low polyreactivity”.

For “QVQLVESGGGLVQAGGSLRLSCAASGLTFSLYAMAWYRQAPGNESELVAANSWTGGSTYYADSVKGRFTISRDNAKNTVYLHMNSLKPEDTAVYYCNARYTLFARYGYDYWGQGTQVTVSS”, the “polyreactivity (PSR sort gate)” value is listed as “low polyreactivity”.

With “QVHLVESGGGLVEAGGSLRLSCAASGRIFQGYAMGWYRQAPGKERELVAAITRSGGSTYYADSVKGRFTISRDNAKNTVYLQMNSLKPEDTAVYYCAASHYGLLEYWGQGTQVTVSS”, the “polyreactivity (PSR sort gate)” value is reported as “low polyreactivity”.

With “QVQLVESGGGLVQAGGSLRLSCAASGRIFYYNAMGWYRQAPGKERELVASITGSGGSTYYADSVKGRFTISRDNAKNTVYLQMNSLKPEDTAVYYCANREYLYPYYYVAKYDYWGQGTQVTVSS”, the “polyreactivity (PSR sort gate)” value is “low polyreactivity”.

Turning to “QVQLVESGGGLVQAGGSLRLSCAASGFIFRYYAMGWYRQAPGKERELVAAISWSGGSTNYADSVKGRFTISRDNAKNTVYLQMNSLKPEDTAVYYCATRYRRWSTVVQDDYWGQGTQVTVSS”, the “polyreactivity (PSR sort gate)” value is given as “low polyreactivity”.

With “QVQLVESGGGLVQAGGSLRLSCDASGRILKYYDMGWYRQAPGKERELVAAISVSGTSTYYADSVKGRFTISRDNAKNTVYLQMNSLKPEDTAVYYCATATGRYSFDYWGQGTQVTVSS”, the “polyreactivity (PSR sort gate)” value is “low polyreactivity”.

Turning to “QVQLQESGGGLVQACGSQRLSCAASGSISEGQDMGWYRRAPGKESEFVAGIAPCATTYYADSVKGRFTISRDNAKNSVYLQMNSLKPEDTAVYYCAARSVTETDHDYWGQCTQVTVSS”, the “polyreactivity (PSR sort gate)” value is recorded as “low polyreactivity”.

For “QVQLVESGGGLVQAGGSLRLSCAASGFIFGWNAMGWYREAPGKERELVAALTRTGSTYYADSVKGRFTISRDNAKNTVYLQMNSLKPEDTAVYYCAASYGSRSTRTEGYWGQGTQVTVSS”, the “polyreactivity (PSR sort gate)” value is “low polyreactivity”.

With “QVQHVESGGGLVQAGGSLRLSCAASGSIFGKYAMGWYRQAPGKERELVARISRSSGSTYYADSVKGRFTISRDNAKNTVYLQMNSLKPEDTAVYYCAARAYLNQARPKYGYSYDYWGQGTQVTVSS”, the “polyreactivity (PSR sort gate)” value was “high polyreactivity”.

For the sequence “QVQLVESVGGLVQAGGSLRLSCAASGRTFWWNAMGWYRQAPGKEREFVAAIRSTGGRTYYADSVKGRFTISRDNAKNTVYLQMNSLKPEDTAVYYCAAYTLDPYGFLYEYWGQGTQVTVSS”, the “polyreactivity (PSR sort gate)” value is “high polyreactivity”.

Consider “QVQLVESGGGLVQAGGSLRLSCAASGNIFAVYAMGWYRQAPGKERELVAAISYSSTRTYYADSVKGRFRISRDNAKNTVYLQMNSLKPEDTAVYYCAVETWWDYDYWGQGTQVTVSS”, for which the “polyreactivity (PSR sort gate)” value is “high polyreactivity”.

With “QVQLVESGGGLVQAGGSLRLSSAASGSIFYYNAMGWYRQAPGKEREFVAAISARGGSTYYADSVKGRFTISRDNAKNTVYLQMNSLKPEDTAVYYCAASWGLDTYSDSTYWGGYYYSGQGTQVTVSS”, the “polyreactivity (PSR sort gate)” value was “low polyreactivity”.

For “QVQLVESGGGLVQEGGSLRLSCAASGSTFEYNAMGWDRQAPGKEREFVAAISRTGSRTYYADSVKGRFTISRDNAKNTVFLQMNSLIPEDTAVYYCASVKSRLQVGYYSWGQGTQVTVSS”, the “polyreactivity (PSR sort gate)” value is “high polyreactivity”.

For “QVQLVESGGGLVQAGGSLRLSCAASGSTFEVYTMGWYRQAPGKARELVADITWSGGNTYYADSVKGRYTISRDNAKNTVYLQMNSLKPEDTAVYYCAVDGGEFSSYGYWGQGTQVTVSS”, the “polyreactivity (PSR sort gate)” value is “low polyreactivity”.

Turning to “QLQLVESGGGLVQAGGSLRLRCAASGRTFIRYAMGWYRPAPGKERELVAAISSRGGRTHYADSVKGRFTISRDNAKNTFYFQMNSLKPEDTAVYDCAADLNYGTVPGASYDYWGQGTQVTGSS”, the “polyreactivity (PSR sort gate)” value is “low polyreactivity”.

As to “QVQLVESGGGLVQAGGSLRLSSAASGSTFQDYDMRRSRQAPGKERELVAVISGSGGCTYYADSVKGRFTISRDNAKNTVYLQMNSLKPEDTAVYYCATDIKDGRPGDGVYDYGYWGQGTQVTVSS”, the “polyreactivity (PSR sort gate)” value is given as “low polyreactivity”.

Consider “QVQLVESGGGIVQAGGSLRLSCAASGGIFDYNAMGWYRQAPGKERELVAAISGSDVSTYYADSVKGRFTISRDNAKNTVYLQMKSLKPEDTAVYYCAADAPWAYYEYDYWGQGTQVTVSS”, for which the “polyreactivity (PSR sort gate)” value is given as “low polyreactivity”.

Consider “QVQLVESGGGLVQAGGSLRLSCAASGSIFVGYDMGWYRQAPGKERELVASINGGDSTNYADSVKGRFTISRDNAKNTVYLQMNSLKPEDTAVYYCAKDVTYTDEYDYWGQGTQVTVSS”, for which the “polyreactivity (PSR sort gate)” value is “low polyreactivity”.

Turning to “QVQLVESGGGLVQAGGSLRLSCAASGRIFGAYTMGWYRQAPGKEREFVAAITQSGGSTYYADSVKGRFTISRDNAKNTVYLQMNSLKPEDTAVYYCAATRYVLVGWRYAVWYDYWGQGTQVTVSS”, the “polyreactivity (PSR sort gate)” value is reported as “high polyreactivity”.

As for “QVQLVESGGGLVQAGGSLRLSCAASGSLFYSYAMGWDRPAPGKERELVAAIRRDGSTNYADSVKGRFTISRDNAKNTVYLQMNSLKPEDTAVYYCNADGWNTYIGPRRYRYDYWGQGTQVTVSS”, the “polyreactivity (PSR sort gate)” value was “low polyreactivity”.

Take “QVQLVESGGGLVQAGGSLRLSCAASGSISFRYAMGWYRQAPGKDRELVAAITSGGGTTYYADSVKGRFTISRDNAKNTVYLQMNSMKPEDTAVYYCAKPRARQAFDYWGQGTQVTVSS”: the “polyreactivity (PSR sort gate)” value is reported as “high polyreactivity”.

As to “QVQLVESGGGLVQAGGSLRLSCAASGRTFFYNAMGWYRQAPGKERELVARITQSGVITYYADSVKGRFTISRDNAKNTVYLQMNSLKPEDTAVYYCNADDTYSPFRGVSYDYWGQGTQVTVSS”, the “polyreactivity (PSR sort gate)” value was “low polyreactivity”.

As for “QDQLVESGGGLVQAGGSLRLSCAASGRTFTYYAMGWYRQAPGKDRELDAGISSGGGSTYYADSVKGRFTISRDHAKNTVYLQMNSLKPEDTAVYYCATAKRQGGYSEYDYWGQGTQVTVSS”, the “polyreactivity (PSR sort gate)” value is reported as “high polyreactivity”.

“QVQLVDSGGGLVQAGGSLRLSCAASGRTIHGYAMGWYRQAPGKERELVAAINWRGGSTYYADSVKGRFTISRDNAKNTVYLQMNSLKPEDTAVYYCNKRQYSARVSRSYDYWGQGTQVTVSS”: the “polyreactivity (PSR sort gate)” value was “high polyreactivity”.

Take “QVQLVESGGGLVQAGGSLRLSCAASGSIFTPNAMGWYRQAPGKERELVAAISQSGGSTYYADSVKGRFTISRDNAMNTVYLQMNSLKPEDTAVYYCGASVRHRGYDYWGQGTQVTVSS”: the “polyreactivity (PSR sort gate)” value is reported as “high polyreactivity”.
